Among the targets are HLA-A*23:01; HLA-A*24:02; HLA-A*29:02; HLA-A*26:01; HLA-A*30:02; HLA-A*01:01; HLA-A*32:01; HLA-A*30:01; HLA-B*51:01; HLA-B*53:01.
Holding throughout (assay): IEDB peptide-MHC binding, purified MHC/competitive/radioactivity; filed as Kd, often an IC50 or EC50 that approximates it; ≥ and ≤ were set here for values at or beyond the usual limits of such assays
The target of a further test is HLA-B*35:01. The conditions noted are these: source organism: Dengue virus 3 Martinique/1243/1999.
The next test deals with HLA-A*03:01. The conditions noted are these: source organism: SARS coronavirus Tor2.
Another test concerns the target HLA-A*68:01. The conditions noted are these: source organism: SARS coronavirus Tor2.
The next test addresses HLA-A*11:01. The conditions noted are these: source organism: SARS coronavirus Tor2.
The target in another test is HLA-A*31:01. The conditions noted are these: source organism: SARS coronavirus Tor2.
Another test concerns the target HLA-A*33:01. The conditions noted are these: source organism: SARS coronavirus Tor2.
[1] abbreviates: source organism: Mammarenavirus brazilense.
Where [2] appears, read: source organism: SARS coronavirus Tor2.
Setting [3] is: source organism: Mammarenavirus juninense.
Where [4] appears, read: source organism: Dengue virus 1 Brazil/97-11/1997.
The mark [5] stands for this setting: source organism: Dengue virus 3 Martinique/1243/1999.
Where [6] appears, read: source organism: Mammarenavirus guanaritoense.
The mark [7] stands for this setting: source organism: Mammarenavirus lassaense.
Where [8] appears, read: source organism: Dengue virus 3 Singapore/8120/1995.
Setting [9] is: source organism: Mammarenavirus whitewaterense.
The mark [10] stands for this setting: source organism: Mammarenavirus machupoense.
Where [11] appears, read: source organism: Dengue virus 4 Dominica/814669/1981.

From the Immune Epitope Database (IEDB) come the findings set out here.

What is called Kd is the concentration at which binding is half-saturated. Consider NYPYLFEEHL, for which the Kd with HLA-A*23:01 (setting [1]) was 824 nM; with HLA-A*24:02 (setting [1]) it was 979 nM; with HLA-A*29:02 (setting [1]) it was no less than 71400 nM.

MYLKLRSETL: the Kd came out at 44.5 nM with HLA-A*23:01 (setting [2]); 7590 nM with HLA-A*26:01 (setting [2]); 164 nM with HLA-A*24:02 (setting [2]); 17700 nM in the test with HLA-A*29:02 (setting [2]); 18200 nM in the test with HLA-A*30:02 (setting [2]); 7220 nM in the test with HLA-A*01:01 (setting [2]).

As to VAHSSLYGRY, the Kd was no less than 69900 nM with HLA-A*32:01 (setting [3]); 11700 nM with HLA-A*26:01 (setting [3]); 349 nM with HLA-A*29:02 (setting [3]); 8960 nM with HLA-A*30:01 (setting [3]); 5.86 nM with HLA-A*30:02 (setting [3]); 5800 nM in the test with HLA-A*01:01 (setting [3]).

With SYKVASEGF, the Kd with HLA-A*23:01 (setting [4]) came to 626 nM; in the test with HLA-A*24:02 (setting [4]), 209 nM.

As for SYEHQTPFEI, the Kd with HLA-A*23:01 (setting [2]) is 945 nM; with HLA-A*26:01 (setting [2]), 10400 nM; with HLA-A*24:02 (setting [2]), 1240 nM; with HLA-A*29:02 (setting [2]), 7160 nM; with HLA-A*30:02 (setting [2]) it was 7060 nM; with HLA-A*01:01 (setting [2]), 3680 nM.

In the case of LPETMETLLL, the figures for the Kd with HLA-B*51:01 (setting [5]), with HLA-B*35:01 and with HLA-B*53:01 (setting [5]) were 1170 nM, 1210 nM and 24.3 nM, respectively.

In the case of ATVAYFNMVY, the equilibrium dissociation constant (Kd) with HLA-A*23:01 (setting [2]) was no less than 30900 nM; with HLA-A*26:01 (setting [2]) it was 979 nM; with HLA-A*03:01, 269 nM; with HLA-A*68:01 it was 549 nM; with HLA-A*11:01, 74.2 nM; with HLA-A*24:02 (setting [2]) it was 13000 nM. In addition, the Kd was 0.00633 nM with HLA-A*29:02 (setting [2]); 2330 nM in the test with HLA-A*31:01; 1210 nM with HLA-A*30:02 (setting [2]); 893 nM with HLA-A*01:01 (setting [2]); no less than 70000 nM with HLA-A*33:01.

On to FLDGVNLVA, for which the Kd with HLA-A*23:01 (setting [6]) was 8810 nM; with HLA-A*26:01 (setting [6]), no less than 77900 nM; with HLA-A*24:02 (setting [6]), no less than 77500 nM; with HLA-A*29:02 (setting [6]), 5430 nM; with HLA-A*30:02 (setting [6]), 17700 nM; with HLA-A*01:01 (setting [6]), 9.76 nM.

With QWNLVIGFLF, the Kd is 2.14 nM with HLA-A*23:01 (setting [2]); no less than 69700 nM in the test with HLA-A*26:01 (setting [2]); 5.64 nM with HLA-A*24:02 (setting [2]); 39.5 nM with HLA-A*29:02 (setting [2]); no less than 26300 nM in the test with HLA-A*30:02 (setting [2]); no less than 30600 nM with HLA-A*01:01 (setting [2]).

Turning to QYNLSHSYAV, the Kd is 346 nM with HLA-A*23:01 (setting [7]); no less than 69700 nM in the test with HLA-A*26:01 (setting [7]); 1950 nM with HLA-A*24:02 (setting [7]); 1300 nM in the test with HLA-A*29:02 (setting [7]); 3330 nM with HLA-A*30:02 (setting [7]); no less than 70400 nM with HLA-A*01:01 (setting [7]).

In the case of LWMADVPLQW, the figures for the dissociation constant (Kd) with HLA-A*23:01 (setting [8]) and with HLA-A*24:02 (setting [8]) were 39.7 nM and 24.3 nM, respectively.

Take TGFDWITDY: the Kd with HLA-A*30:02 (source organism: Dengue virus 4 Philippines/H241/1956) amounted to 1600 nM.

On to ATGTDMPGGY, for which the dissociation constant (Kd) was no less than 69900 nM in the test with HLA-A*32:01 (setting [9]); no less than 69700 nM with HLA-A*26:01 (setting [9]); 8850 nM with HLA-A*29:02 (setting [9]); no less than 63600 nM with HLA-A*30:01 (setting [9]); 531 nM in the test with HLA-A*30:02 (setting [9]); 33 nM with HLA-A*01:01 (setting [9]).

For the sequence EALSGFLQY, the Kd with HLA-A*32:01 (setting [3]) was no less than 77800 nM; with HLA-A*26:01 (setting [3]), 1490 nM; with HLA-A*29:02 (setting [3]) it was 778 nM; with HLA-A*30:01 (setting [3]), no less than 43100 nM; with HLA-A*30:02 (setting [3]), 3950 nM; in the test with HLA-A*01:01 (setting [3]), 11600 nM.

As to LSSSEPHCA, the Kd with HLA-A*23:01 (setting [10]) was no less than 60900 nM; with HLA-A*26:01 (setting [10]), no less than 77900 nM; in the test with HLA-A*24:02 (setting [10]), no less than 77500 nM; with HLA-A*29:02 (setting [10]), no less than 78900 nM; with HLA-A*30:02 (setting [10]), 2350 nM; in the test with HLA-A*01:01 (setting [10]) it was 4190 nM.

With LMKITAEWLW, the Kd with HLA-B*53:01 (source organism: Dengue virus 2 Jamaica/1409/1983) came to 1410 nM.

For the sequence IPHDLMELI, the Kd came to 16.8 nM with HLA-B*51:01 (setting [11]) and 6.5 nM with HLA-B*53:01 (setting [11]).
